Laboratory results reported in ChEMBL document CHEMBL2074196, “Drug absorption limited by P-glycoprotein-mediated secretory drug transport in human intestinal epithelial Caco-2 cell layers” (Pharm Res, 1993).

System: CC[C@]1(O)C[C@@H]2CN(CCc3c([nH]c4ccccc34)[C@@](C(=O)OC)(c3cc4c(cc3OC)N(C)[C@H]3[C@@](O)(C(=O)OC)[C@H](OC(C)=O)[C@]5(CC)C=CCN6CC[C@]43[C@@H]65)C2)C1
Experiment: TP_TRANSPORTER: transepithelial transport (basal to apical) in Caco-2 cells
Type: functional, cell-based

Substance: ATP-dependent translocase ABCB1 (Homo sapiens)
- Km: 19 µM
